Measurements: patent US20160184401A1, “NON-AGGLOMERATING BIOCONJUGATES OF AMYLIN AND AMYLIN-MIMETIC COMPOUNDS, COMPOSITIONS COMPRISING THE SAME, AND MAKING AND USE THEREOF” (UNIVERSIDADE FEDERAL DO RIO DE JANEIRO, priority 2013, published 2016)
Ends that are not written are not given here.

Assays:
[1] = Long-term effect of pH on aggregation of hAmyPEG5k; assay type: physicochemical; details: 7 days at 25° C. then 9 days at 37° C. (16 days total); FIG. 12
Experimental: In another experimental setting, the influence of pH over the stability of the hAmyPEG5k was also tested for a longer period of time (up to 16 days) and at higher energy environments (37° C.). […] (i.e., 16 days total).

[2] = Pharmacokinetics in rats, plasma ELISA for human amylin; assay type: in vivo, Harlan Sprague Dawley male rats; details: 100 μg peptide in 500 uL saline, FIG. 8A-C
Experimental: The pharmacokinetics of the hAmy-PEG5k and hAmy-PEG20k were characterized in vivo in Harlan Sprague Dawley male rats. The animals were housed in a temperature-controlled room with a light-dark cycle of 12 h. Water and food were available ad libitum. Three groups were formed, control (free human amylin, not PEGylated), hAmy-PEG5k and hAmy-PEG20k. Animals received 500 uL of saline containing 100 μg of human amylin peptides, either free human amylin or purified monoPEGylated human amylin derivatives. Blood was collected retro-orbitally from rats (n=3 rats for each time interval), and the plasma was subjected to ELISA assay for human amylin as provided by the manufacturer (Millipore, Cat Number EZHA-52K.

[3] = Short-term pH-dependent aggregation, ThT fluorescence; assay type: physicochemical; details: pH 3.0 to 10.0, 24h at 25° C.; FIGS. 10, 11
Experimental: In a first setting, free human amylin, […] incubated in aqueous buffered solutions with different pH (from 3.0 to 10.0) in the presence of ThT. Fluorescence emissions derived from ThT binding to amyloid fibers were monitored for 24h at 25° C. […] These findings support the hypothesis that acylated derivatives of human amylin have increased stability in aqueous solutions, especially, in physiologic pH ranges.

[4] = Isoelectric focusing (pI determination); assay type: physicochemical; details: IEF, pH 3-10 linear immobilized pH gradient strips; FIG. 9
Experimental: Sixty micrograms of acetylated human amylin (AcO-hAmy) or hAmyPEG5k were dissolved into 8 M urea, 2% CHAPS and 0.002% bromophenol blue buffer to a final volume of 125 μL. The samples were incubated into a 7 cm pH 3-10 linear immobilized pH gradient strips overnight prior to isoelectric focalization (IEF). The IEF was carried out in MultiPhor II (Pharmacia Biotech) device at 20° C. according to the following conditions, 200 V (1 min), ramping to 3500 V (90 min) and 3500 V (60 min). At the end, the strips were fixed with 0.20% glutaraldehyde (in 30% ethanol, 0.2 M sodium acetate) for 60 min at room temperature, and then stained for peptide identification by Coomassie brilliant blue R-250 (at 0.025% in 40% methanol, 7% acetic acid) for 30 min. The excess of Coomassie was removed by incubation with 0.1% acetic acid until no background visualization. The IEF can be easily calculated from the relationship between displacements in the strips and pH. As depicted in FIG. 9, the acetylation of Lys1 present in AcO-hAmy (FIG. 9A) and the PEGylation in the same site, present in hAmy-PEG5k (FIG. 9B), results in similar effects on the pI of human amylin, […] it to approximately 9.2.

[5] = Short-term stability with insulin analogues, ThT binding assay; assay type: physicochemical; details: 10 μM of each compound, 10 mM NaH2PO4 pH 7.4, 24h at 25° C.; FIG. 13A-D
Experimental: The aggregation ratio of human amylin or its PEGylated derivative upon combination with insulin R, insulin detemir, or insulin glargine was tested by ThT binding assay. Combinations (10 μM of each compound) were incubated with 10 mM NaH2PO4 pH 7.4 and in presence of 10 μM ThT, for 24h at 25° C. Fluorescence variations indicating amyloid fibers formation were monitored by exciting at 450 nm and measuring emission at 482 nm.

[6] = Amyloid aggregation of human amylin by thioflavin T (ThT) binding; assay type: physicochemical; details: pH 7.4, FIG. 7
Experimental: Purified monoPEGylated human amylin of example 1 was re-suspended in DMSO and diluted to PBS pH 7.4 and allowed to incubate at 37° C. Samples were evaluated for amyloid aggregates by using the amyloid chromogenic probe thioflavin T (ThT). The employment of ThT binding protocols to measure amyloid fibril formation has already been determined in the art (see, e.g., Levine, 1999). The kinetics of amylin (50 μM of free or hAmy-PEG5k) aggregation was performed by incubating the protein in 10 mM NaH2PO4 pH 7.4 at 25° C. Aggregation was followed by the binding of Thioflavin T (ThT) to amyloid fibrils, by adding 160 μL sample with 40 μL ThT 100 μM and monitoring fluorescence by exciting at 450 nm and measuring emission at 482 nm for 24 h

[7] = molecular target: RAMP2 (Homo sapiens, UniProt O60895); test: RAMP2 coreceptor binding, fluorescence anisotropy of RAMP-FITC; details: duplicate assays, FIG. 5
RAMP2, sequence (O60895 43-175, species assumed): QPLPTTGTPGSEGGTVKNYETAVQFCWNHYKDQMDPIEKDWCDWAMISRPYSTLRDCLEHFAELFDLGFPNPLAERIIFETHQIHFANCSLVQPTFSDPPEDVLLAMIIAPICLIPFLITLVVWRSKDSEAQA
Experimental: (§1) Purified monoPEGylated human amylin was assayed for RAMP2 and RAMPS coreceptor binding interaction.
(§2) RAMP (receptor activity modifying protein) was labeled with fluorescein isothiocianate for 1 h at 4° C. in PBS ([…]) pH 7.4, and purified by size exclusion chromatography (SEC) in Sepharose G25 (agarose-based chromatography media, provided by the US company GE Healthcare) using the same buffer. Labelling was confirmed by UV absorbance measurements at A280 and A490, allowing estimation of coupling efficiency, relying on about 0.5 fluorescein/RAMP molecule.

[8] = molecular target: T1, RAMP3 (Homo sapiens, UniProt O60896); test: RAMP3 coreceptor binding, fluorescence anisotropy of RAMP-FITC; details: duplicate assays, FIG. 6
T1 sequence (O60896 24-148): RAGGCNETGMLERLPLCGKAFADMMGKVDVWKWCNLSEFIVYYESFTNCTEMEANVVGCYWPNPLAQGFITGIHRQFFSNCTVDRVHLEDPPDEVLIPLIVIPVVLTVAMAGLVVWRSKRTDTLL
Experimental: as §1, §2

## hAmy-PEG5k: monopegylated amylin obtained by the reaction of human amylin and mPEG 5000 Da (KCNTATCATQRLANFLVHSSNNFGAILSSTNVGSNTY; not fully specified (C-terminus, bridges); cysteine pairing not given here; also: mono-PEGylated with mPEG 5000 Da, site not given here)
[1]
  aggregation at different pH, long term: remains non-aggregated
[2]
  plasma decay / duration of stability in plasma: longer duration of stability in plasma
[3]
  aggregation kinetics / aqueous stability (ThT): improved aqueous stability and lower or absent formation of amyloid fibers
[4]
  pI: approximately 9.2
[5]
  aggregation (ThT binding): does not
[6]; at day 7
  aggregation (ThT binding to amyloid fibrils): no signs of aggregation

## detemir
[5]
  aggregation (ThT binding): negligible aggregation

## KCNTATCATQRLANFLVHSSNNFGAILSSTNVGSNTY [human amylin]
[5]
  aggregation (ThT binding): aggregates
[6]; 50 μM
  aggregation (ThT binding to amyloid fibrils): aggregates very fast
[6]; in 3 days
  aggregation (ThT binding to amyloid fibrils): almost all free human amylin was aggregated in amyloid form

## glargine
[5]
  aggregation (ThT binding): negligible aggregation

## insulin R: recombinant insulin
[5]
  aggregation (ThT binding): negligible aggregation

## HEWL: unrelated protein hen egg white lisozyme, control for non-specific binding
[7]
  apparent binding affinity for the coreceptor RAMP2: nonspecific binding
[8]
  apparent binding affinity for the coreceptor RAMP3: nonspecific binding
